Where no end group is shown, it is not given here.
Key:
NMRI mice = experiment: In vivo toxicity test, single s.c. dose; design: species or system mouse; settings: for Clinical signs at the end of the day of dosing / Clinical signs on the day of dosing: Clinical signs / Clinical signs on the day of dosing: No clinical signs / Clinical signs on the day of dosing: Pruritus / Necropsy: Macroscopic findings: female NMRI mice; for Clinical signs at the end of the day of dosing / Clinical signs on the day of dosing: Clinical signs / Clinical signs on the day of dosing: No clinical signs / Clinical signs on the day of dosing: Pruritus: animals/group; for Necropsy: Macroscopic findings: necropsy day 4, animals/group
Description: In vivo toxicity of hBD2 was assessed in 6–8 weeks old female NMRI mice (Taconic Europe). All animal studies were performed according to Danish legislations for laboratory animals and approved by Novozymes science ethics committee. hBD2 was given subcutaneously (s.c.) in the intrascapular region using a 25G needle and a 1 ml syringe. […] Clinical signs were recorded on day 0 and monitored until experimental endpoints. Body weights were recorded as a minimum on day 0, day 2, and day 4 prior to euthanasia. Necropsy was performed after euthanasia and kidneys, spleens and livers were weighed.

[1] = test system: BALB/cByJ mice with TNBS colitis; experiment: TNBS colitis model; type: in vivo, mouse; settings: hBD2 0.1 mg/kg s.c. once a day
Description: The TNBS colitis study was performed by Farma-Cros Ibérica according to directive 86/609 EEC and approved by Novozymes science ethics committee. Male BALB/cByJ mice were used (Janvier) and each group consisted of 15 animals. Animal allocation to all experimental groups was done in a randomized manner. Colitis was induced on day 0 by intracolonic (distal) administration of trinitrobenzene sulfonic acid (TNBS), 1 mg/mouse in 50% ethanol under mild anesthesia (ketamine/xylazine). Treatment of the animals started on day 0 after induction of colitis. All compounds were applied s.c. Mice received PBS (TNBS control), Prednisolone (10 mg/kg), or hBD2 0.1 mg/kg), respectively. In the TNBS control group as well as in the Prednisolone group, 2 animals had to be sacrificed before the end of the experiment. All other animals were sacrificed on day 10. Daily clinical assessment was carried out to calculate a validated clinical DAI ranging from 0 to 4 according to the following parameters: body weight loss, presence or absence of rectal bleeding, stool consistency.
(§1) Sections of the colon were taken from each animal and preserved in neutral buffered formaline for subsequent histological analysis. Sections were stained using haematoxylin and eosin for further scoring.

[2] = test system: SCID mice with CD4+/CD25− T cell transfer colitis; experiment: T cell transfer colitis model; type: in vivo, mouse
Description: This study was performed by the Department of Biomedical Science at the University of Catania according to directive 86/609 EEC and approved by Novozymes science ethics committee. 8 weeks old female BALB/c and C.B-17 female SCID mice were purchased from Harlan (Italy). Colitis was induced in severe combined immunodeficiency (SCID) mice by transplantation of CD4^+/CD25^− T cells from the BALB/c mice. Briefly, lymphomonocytes isolated from spleen or lymph nodes from BALB/c mice were subjected to negative selection of CD4^+ T cells. Afterwards, CD4^+/CD25^+ cells were positively isolated by binding to the beads from the CD4^+ T cell suspensions and the CD4^+/CD25^− were collected from supernatant. […] CD4^+/CD25^− cells were intraperitoneally injected to SCID mice at a concentration of 500,000 cells in a final volume of 0.2 ml RPMI 1640. Sham treated animals (n = 6) received 0.2 ml pure RPMI 1640. Diseased mice were randomized divided into 4 groups (n = 11) and treated once daily by s.c. application of PBS (vehicle), hBD2 (0.1 and 1 mg/kg, respectively) or 0.3 mg/kg Dexamethasone (Dexa., applied intraperitoneally). Treatments started 7 days post T cell transfer and continued daily for 86 days. Animals were weighed three times a week and monitored twice a week starting from day 42 for the clinical status, summarized as DAI. The DAI included body weight loss, stool consistency, and the presence of blood at the rectum. One animal in the vehicle and one in the Dexamethasone treated groups had to be sacrificed before the end of the study. At the end of the study, animals were sacrificed and the colon was removed and carefully cleaned for further analysis. First, the colon was weighed then a section from the middle was removed and fixed for pathologic survey. The rest of the colon (5 cm) was used to quantify the activity of myeloperoxidase in the tissue.
Myeloperoxidase activity was performed on 5 cm of colon previously frozen at −80°C. Colon was homogenized in 0.5% of HETAB dissolved in 10 mM of Phosphate-Citrate Buffer (pH 7.0) to enable the release of MPO enzyme from the neutrophil granules. Homogenated samples after three freeze-thaw cycles were spun at 3,000 × g at 4°C for 30 min. Pellets were resuspended in 0.5% HETAB in 10 mM Phosphate-Citrate Buffer and spun again at 3,000 × g at 4°C for 30 min. 500 ul of supernatant were delivered into a vial along with 500 ul of TMB in Phosphate-Citrate Buffer containing Perborate Sodium. Changes in absorbance at 620 and 450 nm were read by a spectrophotometer (IRIS). Peroxidase enzyme diluted in 0.5% HETAB in 10 mM Phosphate-Citrate Buffer and H2O was used as standard. Two-fold dilutions of standard were prepared at the highest concentration of 50 pg/ml. Reagents and samples were kept refrigerated. Substrate solution was prepared just before the assay. MPO activity expresses the amount of enzyme that is able to degrade […] of peroxide/min and it is expressed as U/g tissue weight.
as §1

[3] = test system: human mesenchymal stem cells, osteoblasts, keratinocytes, and HeLa cells; settings: cited from earlier work
Description: (§2) Herein we report that hBD2 can be used as a systemically administered anti-inflammatory biological. hBD2 is well-tolerated, both in vitro, and in vivo. […] After su ...

[4] = test system: intestinal epithelial cells; settings: cited from earlier work
Description: as §2

[5] = hBD2 1 mg/kg s.c. daily, n = 11

Q: With “human β-defensin 2 (GIGDPVTCLKSGAICHPVFCPRRYKQIGTCGLPGTKCCKKP; not fully specified; ends and bridges not checked) [hBD2, Recombinant human β-defensin 2 expressed in E. coli as his-tagged thioredoxin fusion, cleaved and purified, natural tertiary structure]” as the substance, how does the “Clinical signs after systemic challenge” value (NMRI mice; 0.5 mg/kg s.c.) read?
A: did not develop any clinical signs

Q: And the “Clinical signs at the end of the day of dosing” value (from here on “Clinical signs at the end”) (NMRI mice; 0.5 mg/kg s.c.)?
A: 0/3

Q: What about the “Clinical signs on the day of dosing: Clinical signs” value (NMRI mice; 0.5 mg/kg s.c.) of the same substance?
A: 0/3

Q: What about the “Clinical signs on the day of dosing: No clinical signs” value (“Clinical signs … No clinical signs” below) (NMRI mice; 0.5 mg/kg s.c.) of the same substance?
A: 3/3

Q: What about the “Clinical signs on the day of dosing: Pruritus” value (from here on “Clinical signs … Pruritus”) (NMRI mice; 0.5 mg/kg s.c.) of the same substance?
A: 0/3

Q: What about the “Necropsy: Macroscopic findings” value (NMRI mice; 0.5 mg/kg s.c.) of the same substance?
A: 0/3

Q: What about the “Clinical signs at the end” value (NMRI mice; 10 mg/kg s.c.) of the same substance?
A: 0/3

Q: What about the “Clinical signs on the day of dosing: Clinical signs” value (NMRI mice; 10 mg/kg s.c.) of the same substance?
A: 3/3

Q: And the “Clinical signs … No clinical signs” value (NMRI mice; 10 mg/kg s.c.)?
A: 0/3

Q: And the “Clinical signs … Pruritus” value (NMRI mice; 10 mg/kg s.c.)?
A: 3/3

Q: And the “Necropsy: Macroscopic findings” value (NMRI mice; 10 mg/kg s.c.)?
A: 0/3

Q: And the “Clinical signs at 60 min post dosing” value (NMRI mice; 40 mg/kg s.c.)?
A: still affected at 60 min post dosing

Q: What about the “Clinical signs at the end” value (NMRI mice; 40 mg/kg s.c.) of the same substance?
A: 0/3

Q: What about the “Clinical signs … No clinical signs” value (NMRI mice; 40 mg/kg s.c.) of the same substance?
A: 0/3

Q: What about the “Clinical signs … Pruritus” value (NMRI mice; 40 mg/kg s.c.) of the same substance?
A: 3/3

Q: What about the “Necropsy: Macroscopic findings” value (NMRI mice; 40 mg/kg s.c.) of the same substance?
A: 0/3

Q: What about the Body weight gain (NMRI mice; 0.5, 10, 40 mg/kg s.c., day 0-4) of the same substance?
A: did not show any weight loss

Q: What about the “Adverse effects at necropsy” value (NMRI mice; 0.5, 10, 40 mg/kg s.c., necropsy day 4) of the same substance?
A: no adverse effects were observed at necropsy

Q: What about the “Organ weight (liver, spleen, kidneys)” value (NMRI mice; 0.5, 10, 40 mg/kg s.c., necropsy day 4, hBD2 mice n = 3, control n = 2) of the same substance?
A: nor did the organ weight differ significantly between the groups

Q: And the “Clinical signs shortly after challenge” value (NMRI mice; 10 or 40 mg/kg s.c., 10–15 min after challenge, transient)?
A: mild clinical signs

Q: What about the “Microscopic analysis of the colon (mucosa)” value ([1]; TNBS) of the same substance?
A: nearly normal mucosa

Q: What about the Weight change ([1]; TNBS 1 mg/mouse, n = 15) of the same substance?
A: trended toward increased weight gain from day 1–7

Q: What about the Colon weight ([1]; TNBS, n = 15) of the same substance?
A: significantly reduced colon weight

Q: And the “Macroscopic score of colon” value ([1]; TNBS, n = 15)?
A: significantly improved

Q: And the “Microscopic score of colon” value ([1]; TNBS, n = 15)?
A: significantly improved

Q: What about the “Outcome of T cell mediated colitis” value ([2]; hBD2 0.1 mg/kg s.c. daily, n = 11) of the same substance?
A: did not improve the outcome of T cell mediated colitis

Q: And the “Histological analysis of colon” value ([2]; hBD2 1 mg/kg s.c. daily)?
A: less signs of inflammation and tissue disruption

Q: And the Weight change ([2]; hBD2 1 mg/kg s.c. daily from day 7 after transfer, n = 11)?
A: less weight loss

Q: And the Colon weight ([2]; hBD2 1 mg/kg s.c. daily, end of experiment, n = 11)?
A: significantly reduced the colon weight

Q: And the DAI [2, 5]?
A: improved DAI

Q: And the Stool score [2, 5]?
A: Same trait was observed for the stool score

Q: What about the Colonic myeloperoxidase activity ([2]; hBD2 s.c. daily (0.1 or 1 mg/kg), end of experiment) of the same substance?
A: Only a minor effect

Q: And the Cytotoxic effects [3]?
A: without observing cytotoxic effects

Q: What about the Tolerability [4] of the same substance?
A: well-tolerated by intestinal epithelial cells

From article PMC7006816, “Human β-Defensin 2 Mediated Immune Modulation as Treatment for Experimental Colitis” (Frontiers in Immunology, 2020)
